T1: soluble human RGMa (human, UniProt Q96B86 48-422, limits assumed)
T1 construct: Soluble antigen in BIAcore; also called huRGMa; repulsive guidance molecule A
T1 sequence (looked up): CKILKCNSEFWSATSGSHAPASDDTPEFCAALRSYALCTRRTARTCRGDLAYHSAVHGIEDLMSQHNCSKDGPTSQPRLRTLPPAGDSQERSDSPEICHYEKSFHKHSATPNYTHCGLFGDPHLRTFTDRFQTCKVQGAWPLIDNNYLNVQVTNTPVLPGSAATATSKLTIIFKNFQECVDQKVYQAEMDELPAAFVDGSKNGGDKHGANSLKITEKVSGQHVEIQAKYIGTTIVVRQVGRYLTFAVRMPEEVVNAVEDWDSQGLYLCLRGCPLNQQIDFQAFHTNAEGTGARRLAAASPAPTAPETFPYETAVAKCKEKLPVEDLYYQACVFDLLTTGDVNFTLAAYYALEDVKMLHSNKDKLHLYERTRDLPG

T2: soluble rat RGMa (rat, UniProt D4A188 48-421)
T2 construct: Soluble antigen in BIAcore
T2 sequence: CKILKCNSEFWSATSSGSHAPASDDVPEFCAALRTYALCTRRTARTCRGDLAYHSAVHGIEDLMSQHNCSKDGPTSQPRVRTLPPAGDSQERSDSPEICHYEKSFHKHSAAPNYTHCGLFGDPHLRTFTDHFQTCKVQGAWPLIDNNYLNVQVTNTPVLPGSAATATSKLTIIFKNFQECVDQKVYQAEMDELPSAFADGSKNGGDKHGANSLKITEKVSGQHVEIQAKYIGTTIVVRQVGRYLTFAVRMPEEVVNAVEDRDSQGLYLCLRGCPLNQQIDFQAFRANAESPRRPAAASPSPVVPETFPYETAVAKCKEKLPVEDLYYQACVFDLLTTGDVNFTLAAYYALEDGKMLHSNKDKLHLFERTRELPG

T3: soluble human RGMc (human, UniProt Q6ZVN8 36-400)
T3 construct: also called huRGMc; soluble hRGMc
T3 sequence: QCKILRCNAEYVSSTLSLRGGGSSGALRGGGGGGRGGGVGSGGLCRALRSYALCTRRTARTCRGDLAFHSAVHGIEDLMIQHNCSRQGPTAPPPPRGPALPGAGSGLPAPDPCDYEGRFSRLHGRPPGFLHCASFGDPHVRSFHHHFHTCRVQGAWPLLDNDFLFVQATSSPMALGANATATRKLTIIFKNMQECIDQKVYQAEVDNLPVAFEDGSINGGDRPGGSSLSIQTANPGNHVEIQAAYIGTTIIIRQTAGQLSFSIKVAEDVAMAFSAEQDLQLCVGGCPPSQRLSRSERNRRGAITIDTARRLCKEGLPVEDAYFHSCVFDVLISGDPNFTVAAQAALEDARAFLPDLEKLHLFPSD


Legend:
Assay in all cases: SPR (BIAcore)
[1] = molecular target: T1, soluble human RGMa;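 note: Anti-HJV antibodies tested for binding against soluble human RGMa by surface plasmon resonance on a BIAcore instrument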
Method: (§1) Binding affinities of the anti-HJV antibodies to soluble human RGMa, Rat RGMa and human RGMc were measured by BIAcore analysis.

[2] = molecular target: T2, soluble rat RGMa;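 note: binding kinetics and affinity of anti-HJV antibodies toward soluble rat RGMa, determined by SPR on a BIAcore instrument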
Method: as §1

[3] = molecular target: T3, soluble human RGMc;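 note: Anti-HJV antibodies, binding affinity to soluble human RGMc measured by BIAcore surface plasmon resonance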
Method: as §1

Kd [1]	koff [1]	kon [1]	Kd [2]	koff [2]	kon [2]	Kd [3]	koff [3]	kon [3]	Binder
0.038 nM	6.7e-05 s⁻¹	1.8e+06 M⁻¹ s⁻¹	0.031 nM	3.6e-05 s⁻¹	1.2e+06 M⁻¹ s⁻¹	0.16 nM	0.00165 s⁻¹	1.08e+07 M⁻¹ s⁻¹	hHA-001 (antibody, human IgG1, kappa, L234A L235A, V domains shown, hIgG1 constant region with L234A, L235A, kappa) VH: EVQLVESGGGLVQPGGSLRLSCAASGFTFSNYGMNWIRQAPGKGLEWIGMIYYDSSEKHYADSVKGRFTISRDNSKNTLYLQMNSLRAEDTAVYYCAKGTTPDYWGQGTMVTVSS VL: DVVLTQSPLSLPVTLGQPASISCRSSQSLETSDGDTFLEWFQQRPGQSPRLLIYEVSTRFSGVPDRFSGSGSGTDFTLKISRVEAEDVGVYYCFQVTHDPMTFGQGTKLEIKR
0.12 nM	0.00014 s⁻¹	1.1e+06 M⁻¹ s⁻¹	0.036 nM	3.1e-05 s⁻¹	870000 M⁻¹ s⁻¹	0.3 nM	0.0024 s⁻¹	8.1e+06 M⁻¹ s⁻¹	hHA-003 (antibody, human IgG1, kappa, L234A L235A, V domains shown, hIgG1 L234A, L235A, kappa) VH: EVQLVESGGGLVQPGGSLRLSCAASGFTFSNYGMNWIRQAPGKGLEWIGMIYYDSSEKHYADSVKGRFTISRDNSKNTLYLQMNSLRAEDTAVYYCAKGTTPDYWGQGTMVTVSS VL: DVVLTQSPLSLPVTLGQPASISCRSSQSLETSDGDTFLEWFQQRPGQSPRLLIYEVSNRFSGVPDRFSGSGSGTDFTLKISRVEAEDVGVYYCFQVTHDPVTFGQGTKLEIKR
0.15 nM	8.9e-05 s⁻¹	590000 M⁻¹ s⁻¹	< 0.002 nM	< 1e-06 s⁻¹	510000 M⁻¹ s⁻¹	0.425 nM	0.00215 s⁻¹	5.05e+06 M⁻¹ s⁻¹	hHA-007 (antibody, human IgG1, kappa, L234A L235A, V domains shown, hIgG1 L234A, L235A, kappa) VH: EVQLVESGGGLVQPGGSLRLSCAASGFTFSNYGMNWIRQAPGKGLEWIGMIYYDSSDKHYADSVKGRFTISRDNSKNTLYLQMNSLRAEDTAVYYCAKGTTPDVWGQGTMVTVSS VL: DVVLTQSPLSLPVTLGQPASISCRSSQSLEESDGYTFLHWFQQRPGQSPRLLIYEVSNRFSGVPDRFSGSGSGTDFTLKISRVEAEDVGVYYCFQATHDPVTFGQGTKLEIKR
0.12 nM	0.00014 s⁻¹	1.2e+06 M⁻¹ s⁻¹	0.032 nM	3e-05 s⁻¹	940000 M⁻¹ s⁻¹	0.385 nM	0.00255 s⁻¹	6.65e+06 M⁻¹ s⁻¹	hHA-006 (antibody, human IgG1, kappa, L234A L235A, V domains shown, hIgG1 L234A, L235A, kappa) VH: EVQLVESGGGLVQPGGSLRLSCAASGFTFSYYGMNWIRQAPGKGLEWIGMIYYDSSEKHYADSVKGRFTISRDNSKNTLYLQMNSLRAEDTAVYYCAKGTTPDYWGQGTMVTVSS VL: DVVLTQSPLSLPVTLGQPASISCRSSQSLEDSDGGTFLEWFQQRPGQSPRLLIYDVSSRFSGVPDRFSGSGSGTDFTLKISRVEAEDVGVYYCFQATHDPLTFGQGTKLEIKR

From patent US20240417458A1 (DISC MEDICINE, published 2024)
